Our source for the MFI (arbitrary units) (arbitrary units) and MFI (n = 2) values is US20220033505A1.

The target in assay [1] is CD3 on human T cells (Jurkat cells, primary human T cells) (human) (UniProt P07766). The experiment in a line: flow cytometry; 10 nM antibody on Jurkat cells (No Ab background 2075.61). For orientation: A flow cytometer gives signals particle by particle.
Assay [2] shares this target. The experiment in a line: flow cytometry; positive control scFv on human T cells, anti-His Alexa-647.

CD3 on human T cells (Jurkat cells, primary human T cells) (human), sequence (P07766 23-207): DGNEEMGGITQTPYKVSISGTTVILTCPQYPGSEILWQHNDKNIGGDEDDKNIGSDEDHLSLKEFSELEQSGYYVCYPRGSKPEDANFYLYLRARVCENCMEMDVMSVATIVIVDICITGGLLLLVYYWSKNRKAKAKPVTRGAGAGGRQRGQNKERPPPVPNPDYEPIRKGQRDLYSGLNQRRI

Regarding “UCHT1 (anti-CD3 clone, positive control) (antibody)”, the MFI (arbitrary units) (arbitrary units) in assay [1] came to 89200. As for “CD3W36 (anti-CD3 antibody SP34 formatted as LH-scFv, positive control)”, the MFI (n = 2) in assay [2] is 99500.
